This is an account of results in publication PMC4791469.

Assay [1] has as its target Chlamydomonas ferredoxin:NAD(P) reductase I (CrFNR1) (Chlamydomonas reinhardtii) (UniProt P53991).
The target in assay [2] is Chlamydomonas [FeFe]-hydrogenase HYDA1 (CrHYDA1) (Chlamydomonas reinhardtii).

Chain of UniProt P53991 (P53991 36-354): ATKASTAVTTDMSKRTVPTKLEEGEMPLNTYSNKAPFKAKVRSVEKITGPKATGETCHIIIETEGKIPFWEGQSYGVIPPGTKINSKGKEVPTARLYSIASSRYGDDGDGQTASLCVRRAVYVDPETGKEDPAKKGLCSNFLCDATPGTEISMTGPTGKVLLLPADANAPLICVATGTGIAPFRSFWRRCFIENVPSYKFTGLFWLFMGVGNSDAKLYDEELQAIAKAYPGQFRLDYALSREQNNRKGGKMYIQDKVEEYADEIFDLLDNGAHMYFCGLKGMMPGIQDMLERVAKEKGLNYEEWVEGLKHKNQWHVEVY

On to “Chlamydomonas reinhardtii ferredoxin 1 (CrFDX1), mature, tag cleaved (natural protein)”, for which, in assay [1], the Km for the ferredoxin in FNR1-catalysed NADPH photo-production (thylakoids, 0.5 μM FNR1, varied FDX, Lineweaver-Burk) was found to be 0.4 µM and the catalytic efficiency kcat/Km of FNR1-catalysed NADPH photo-production with this ferredoxin amounted to 1.7e+09 M⁻¹ s⁻¹. In addition, in assay [2], the hydrogen photo-production rate (thylakoids, 100 nM HYDA1, light, gas chromatography) stood at 489.

Take CrFDX2 (M62F) (natural protein): in assay [1], the Km for the ferredoxin in FNR1-catalysed NADPH photo-production (thylakoids, 0.5 μM FNR1, varied FDX, Lineweaver-Burk) came to 0.69 µM. In assay [2], the hydrogen photo-production rate (thylakoids, 100 nM HYDA1, light, gas chromatography) (µmol H2/µg Chl/h) was found to be 150.

For the substance “Chlamydomonas reinhardtii ferredoxin 2 (CrFDX2), mature, wild type, tag cleaved (natural protein)”, in assay [1], the Km for the ferredoxin in FNR1-catalysed NADPH photo-production (thylakoids, 0.5 μM FNR1, varied FDX, Lineweaver-Burk) was determined as 0.18 µM and the catalytic efficiency kcat/Km of FNR1-catalysed NADPH photo-production with this ferredoxin stood at 3.5e+09 M⁻¹ s⁻¹. In assay [2], the hydrogen photo-production rate (thylakoids, 100 nM HYDA1, light, gas chromatography) was 86.

As to CrFDX2 (∇95Y) (natural protein), the Km for the ferredoxin in FNR1-catalysed NADPH photo-production (thylakoids, 0.5 μM FNR1, varied FDX, Lineweaver-Burk) in assay [1] came to 0.38 µM. In assay [2], this substance displayed a hydrogen photo-production rate (thylakoids, 100 nM HYDA1, light, gas chromatography) of 134.

Regarding CrFDX2 (M62F/∇95Y) (natural protein), the Km for the ferredoxin in FNR1-catalysed NADPH photo-production (thylakoids, 0.5 μM FNR1, varied FDX, Lineweaver-Burk) in assay [1] turned out to be 3.44 µM. In assay [2], the hydrogen photo-production rate (thylakoids, 100 nM HYDA1, light, gas chromatography) was found to be 264.
